We go through 1 compound from patent US12233115B2, “Long-acting parathyroid hormone” (Extend Biosciences, Inc., priority 2022, dated 2025).

Read-outs that look alike come from different tables or passages of the source.

The nature of data set [1]: Solubility in PBS (A280). Format: physicochemical. As to the method: PEG Length and Counterion Affects Solubility: The solubility of the acetate and carbonate salt form of each compound was determined as follows. For EXT611, EXT606, and EXT608, phosphate buffered saline (PBS) was added to each compound to form a saturated solution. Undissolved compound was removed by centrifugation. The concentration of dissolved compound was determined by measuring the absorbance at 280 nm using an extinction coefficient of 18,600 M^−1 cm^−1. For EXT615, EXT616, and EXT617, solubility was limited practically by the high viscosity imparted by the large PEG moieties. Highly viscous drug formulations are difficult to manipulate and require large needle bore sizes that cause increased injection site pain. PBS was added to EXT615, EXT616, and EXT617 incrementally until a solution was obtained that could be successfully pipetted through a pipet tip with a bore of approximately 1 mm diameter (enlarged by removing the end with a razor blade). The concentration of dissolved compound was determined by measuring the absorbance at 280 nm using an extinction coefficient of 18,600 M^−1 cm^−1. […] For EXT608, the acetate salt was 17.6-fold more soluble than the carbonate salt.

A short description of data set [2]: Single dose pharmacokinetics of EXT607 in male rats. As to conditions: rat, in vivo, sc; rats, after subcutaneous dosing; read-out: terminal half-life. Here is the method:
In a single dose pharmacokinetic study, EXT607 was formulated in PBS and groups of male rats (n=3) were dosed at a volume of 1 ml/kg as follows: Group 1, 100 μg/kg intravenous; Group 2, 30 μg/kg subcutaneous; Group 3, 100 μg/kg subcutaneous; Group 4, 300 μg/kg subcutaneous. Blood (0.25 mL) was collected via the jugular vein cannula, transferred into tubes containing K2EDTA, and kept on wet ice until processed for plasma. Blood samples were collected at 0 (predose), 0.083 (IV only), 0.25, 0.5, 1, 2, 4, 6, 8, 12, 24, 36, 48, 60 and 72 h postdose.
Pharmacokinetic parameters were determined from the plasma concentration versus time data (Table 4) by a non-compartmental analysis with uniform weighting using Phoenix® WinNonlin® Version 6.3 (Certara L.P. (Pharsight), St. Louis, MO). The concentration versus time data were analyzed using the IV bolus or extravascular administration models. Best fit Lambda z ranges were used.

Data set [3] in a line: Single dose pharmacokinetics of EXT607 in male cynomolgus monkeys. Format: in vivo. Particulars: cynomolgus monkey, in vivo, sc; NHP, after subcutaneous dosing; read-out: terminal half-life. Here is the method: In a single dose pharmacokinetic study, EXT607 was formulated in PBS and groups of male cynomolgus monkeys (n=3), weighing approximately 4 kg each, were dosed at a volume of 1 ml/kg as follows: Group 1, 20 μg/kg intravenous; Group 2, 7 μg/kg subcutaneous; Group 3, 20 μg/kg subcutaneous; Group 4, 70 μg/kg subcutaneous. Blood (1.0 mL) was collected via the jugular vein cannula, transferred into tubes containing K2EDTA, and kept on wet ice until processed for plasma. Blood samples were collected at 0 (pre-dose), 0.083 (IV only), 0.25, 0.5, 1, 2, 4, 6, 8, 12, 24, 36, 48, 60 and 72 h post-dose.
Pharmacokinetic parameters were determined from the plasma concentration versus time data (Table 5) by a non-compartmental analysis with uniform weighting using Phoenix® WinNonlin® Version 6.3 (Certara L.P. (Pharsight), St. Louis, MO). The concentration versus time data were analyzed using the IV bolus or extravascular administration models. Best fit Lambda z ranges were used.
At low doses, the rate of subcutaneous absorption is slower than at high doses, leading to a lower Cmax and an overall flatter PK profile.

The nature of data set [4]: Repeat dose pharmacokinetics of EXT608 in male and female rats. Format: in vivo. As to conditions: rat; for Cmin: 0-24 h; for AUC(0-t): sc, read-out: AUC0-24 h. As to the method: 21-Day Experiment: EXT608 was formulated in 20 mM sodium acetate pH=5.5 buffer with 0.8% sodium chloride. In a repeat dose toxicokinetic study, groups of 18 rats (9 males+9 females) were subcutaneously dosed daily at a volume of 0.5 ml/kg with either 14.2 μg/kg or 70 μg/kg of EXT608. On Day 21, blood samples (˜0.5 ml) were collected at t=0 (pre-dose), 0.5, 1, 3, 8, 24, 32, 48, and 72 h with each timepoint being collected from one of three cohorts of 3 male and 3 female animals. Each blood sample was collected from the jugular vein into tubes containing K2EDTA and manually inverted several times. Blood samples were kept on wet ice pending centrifugation. Samples were centrifuged (˜2700 g, ˜10 min, ˜5° C.) within 1 hour of collection. Plasma was recovered and divided evenly into duplicate aliquots and frozen. 90-Day Experiment: EXT608 was formulated in 20 mM sodium acetate pH=5.5 buffer with 0.8% sodium chloride and 0.1% Polysorbate 80. In a repeat dose toxicokinetic study, groups of 18 rats (9 males+9 females) were subcutaneously dosed daily at a volume of 0.5 ml/kg with either 1, 3, or 10 μg/kg of EXT608. On Day 90, blood samples (˜0.5 ml) were collected at t=0 (pre-dose), 0.5, 1, 3, 8, 24, 32, 48, and 72 h with each timepoint being collected from one of three cohorts of 3 male and 3 female animals. Plasma was prepared as described above for the 21-Day experiment. […] Group-averaged EXT608 levels as a function of time are shown in FIG. 13 for the last dose administration after either 21 days of daily dosing (14.2 and 70 μg/kg) or 90 days of daily dosing (1, 3, and 10 μg/kg). Surprising, the PK profiles changed as a function of dose level. […] Pharmacokinetic parameters were determined from the plasma concentration versus time data (Table 6) by a non-compartmental extravascular administration model with uniform weighting using Phoenix® WinNonlin® Version 6.4 (Certara L.P. (Pharsight), Princeton, NJ). Pharmacokinetic analysis was performed on data collected from t=0 to 72 h following the last administered dose. […] The Cmax/Cmin ratio represents the peak-to-trough ratio of EXT608 concentration that was observed during the dosing period. […] Without being bound by theory, the low peak-to-trough ratios observed at low doses could be the result of a slower rate of absorption of EXT608 from the subcutaneous space into circulation. A low peak-to-trough ratio is desirable in many therapeutic applications, including parathyroid hormone replacement therapy. It allows dosing at levels close to the ideal efficacious dose without going too high where toxicity might be observed or too low where the efficacy is reduced.

Setting [5] is: in vivo, 1 ug/kg, daily SC 1 μg/kg, 90 days.

The solubility is the concentration that dissolves in the medium under given conditions. Broadly, the Tmax is the time at which the peak concentration occurs.

As for `C=C1CC[C@H](OCCCNC(=O)CCOCCOCCOCCOCCOCCOCCOCCOCCOCCOCCOCCOCCOCCOCCOCCOCCOCCOCCOCCOCCOCCOCCOCCOCCOCCOCCOCCOCCOCCOCCOCCOCCOCCOCCOCCOCCNC(=O)CCN2C(=O)CC(SC[C@H](NC(=O)[C@H](Cc3ccccc3)NC(=O)[C@H](CC(N)=O)NC(=O)[C@H](Cc3c[nH]cn3)NC(=O)[C@@H](NC(=O)[C@H](CC(=O)O)NC(=O)[C@H](CCC(N)=O)NC(=O)[C@H](CC(C)C)NC(=O)[C@H](CCCCN)NC(=O)[C@H](CCCCN)NC(=O)[C@H](CCCNC(=N)N)NC(=O)[C@H](CC(C)C)NC(=O)[C@H](Cc3c[nH]c4ccccc34)NC(=O)[C@H](CCC(=O)O)NC(=O)[C@@H](NC(=O)[C@H](CCCNC(=N)N)NC(=O)[C@H](CCC(=O)O)NC(=O)[C@H](CCSC)NC(=O)[C@H](CO)NC(=O)[C@H](CC(N)=O)NC(=O)[C@H](CC(C)C)NC(=O)[C@H](Cc3c[nH]cn3)NC(=O)[C@H](CCCCN)NC(=O)CNC(=O)[C@H](CC(C)C)NC(=O)[C@H](CC(N)=O)NC(=O)[C@H](Cc3c[nH]cn3)NC(=O)[C@H](CCSC)NC(=O)[C@H](CC(C)C)NC(=O)[C@H](CCC(N)=O)NC(=O)[C@@H](NC(=O)[C@H](CCC(=O)O)NC(=O)[C@H](CO)NC(=O)[C@@H](NC(=O)[C@@H](N)CO)C(C)C)[C@@H](C)CC)C(C)C)C(C)C)C(N)=O)C2=O)C/C1=C/C=C1\CCC[C@]2(C)[C@@H]([C@H](C)CCCC(C)(C)O)CC[C@@H]12` (some centres unmarked) [EXT608], in data set [1], the “fold more soluble, acetate salt vs carbonate salt” value stood at 17.6 fold. Moreover, the solubility in data set [1] (acetate salt, read-out: Solubility as Acetate) turned out to be 9.67 mM; in data set [1] (carbonate salt, read-out: Solubility as Carbonate) it was 0.55 mM. Also, the half-life was 8 to 15 h in data set [2]; 24 to 32 h in data set [3]; 10.4 to 13.8 h in data set [4] (in vivo, repeated daily SC dosing, across doses 1-70 μg/kg, read-out: t1/2 of elimination). The Tmax in data set [4] (setting [5]) turned out to be 1 h. Also, the Cmin came to 0.299 ng/mL in data set [4] (daily SC 1 μg/kg, 90 days); 0.875 ng/mL in data set [4] (daily SC 3 μg/kg, 90 days); 1.56 ng/mL in data set [4] (daily SC 10 μg/kg, 90 days); 2.35 ng/mL in data set [4] (daily SC 14.2 μg/kg, 21 days); 5.92 ng/mL in data set [4] (daily SC 70 μg/kg, 21 days). Further, the AUC(0-t) in data set [4] (setting [5]) turned out to be 11.2 ng·h/mL; in data set [4] (in vivo, 3 ug/kg, daily SC 3 μg/kg, 90 days), 29.9 ng·h/mL; in data set [4] (in vivo, 10 ug/kg, daily SC 10 μg/kg, 90 days), 93.2 ng·h/mL; in data set [4] (in vivo, 14.2 ug/kg, daily SC 14.2 μg/kg, 21 days), 149 ng·h/mL; in data set [4] (in vivo, 70 ug/kg, daily SC 70 μg/kg, 21 days), 875 ng·h/mL.
